Experimental data reported in the DeepSol protein solubility set.

experiment: soluble on expression in E. coli; label from the status in PepcDB or PDB records

Soluble on expression in E. coli, not soluble:
MGSDKIHHHHHHMIVNLSRLGKSGTGMWQYSIKFLTALREIADVDAIICSKVHADYFEKLGYAVVTVPNIVSNTSKTSRLRPLVWYVYSYWLALRVLIKFGNKKLVCTTHHTIPLLRNQTITVHDIRPFYYPDSFIQKVYFRFLLKMSVKRCKHVLTVSYTVKDSIAKTYNVDSEKISVIYNSVNKSDFIQKKEKENYFLAVGASWPHKNIHSFIKNKKVWSDSYNLIIVCGRTDYAMSLQQMVVDLELKDKVTFLHEVSFNELKILYSKAYALVYPSIDEGFGIPPIEAMASNTPVIVSDIPVFHEVLTNGALYVNPDDEKSWQSAIKNIEQLPDAISRFNNYVARYDFDNMKQMVGNWLAESK
MGSDKIHHHHHHMKAVTLRANCDPLFSLFMTSFSEANNIYILNFKKRALQSLLKVKLMYYHESIDSKSKIFPVKIILHDKAVNVPKHWHRSLEISYTYQGSIPDFTIAGKHYSTRPGTILVVNSNEIHSVFFPKTKKRQDSLALSLIFPYPFLMKIVPNYRYRRYEIPDKELLTANNQQNLAELEGILKKFFQFASHQTNSLDEISKTSQILQILYLLTKNFSSIVTTPNDLATTDKPFERLDEIIMFIQEHAKEALTVTKIADHFNLSTSYFSRNFKYYMGNSVIEYLNLVRLHEAYQLLTNTKKSILVISTQVGFPNEKAFTRTFKRIYKVTPTDYRKRLSGKNRTNIL
MGSDKIHHHHHHMKCILYKKALPLILLSCLLLGACGNSKNDSVSKEPLSHTSTEKGTWDSAPKVLTPTADGTQTYTCDVASIDASNSGSGYIIVNYHGSNQKVKLQITGPDSVTYTFDLHGGNEVFPLVASSGSYTVTVFENVEGTQYATVLSQVISVSITDEFGPYLYPNQYVNFTADSPAVKEGSSLAYYCSSDTEVVESVYNYIISNFKYDYDKAKNVKSGYLPDVDKVFTENTGICFDYAAVMATMLRTQAIPTRLEVGYAGEEYHAWISTYIKDKGWINGIIEFDGTSWNMLDPTFASTSDSPKKFIAQKSDYITKYVY
MGSDKIHHHHHHMKDKDINNDFNHIFPKDIRDDFLFSLDSYRLFLEGLSINPSLFYQKWSDVHLQSIIDKYWKPTQKSDWKWSLALPIFSLLENYINTFNKPIIIGFSGLPGSGKSTLGLWIDSVARELSLDIKVISLDDFYLPGHEMDVAMTGNPWNVPRGFPGSHSLDLLNQSLDVFLKTGVLNSPTFDKSLRDGKGDRSGWCDSQPRVLILEGWFVGCEAVSDLSKIDSMAADEFNLSLSQSEKDYRILIQESLFEYSHIWKKFEKIWHLKSSQFNNTILWKSQQEGEMIKLKGSGLKGNNLSNFIRMIQTSIPQQSLSFINSDTTVGINQDRRINFLKTSKYYF
MGSDKIHHHHHHMKDKVVVSQLGARMHYAVPRIFASAGRLAHFYTDICATKGWPRIVNSFPATLYPAPVKRLAGRLPKGVPTALTTVFSNFGLRSVLRHMRAKDVVEETSHAIWAGSIFSEMVARRGFHGAAGLYAFSGDALEQMQAAKQQGLWTAVEQMIAPRDVVEMLLNQEMKRFPAWAGPVQENPHARLFAEREKAEWRLADVIVCPSEFVRKNVVACGGPEDRCVVVPYGVNAAVANNRPARMPGPIRVLTVGEVGLRKGSPYVVEASRLMEGSARFRMAGRVRLADDVKQQISQWVELRGIVPRSQIAEEFRWADVFLLPSLCEGSATAVYEALAAGLPVITTENTGSVVRDGIEGFIVPVCDPEAIATAVRALAGNPELMRSMSANALLRAAEHTVESYGERLLAVLSGPHLAGSVGLCQTEEARYLGNNTI
MGSDKIHHHHHHMKEIVEQNIFNEDLSQLLYSFIDSKETFSFAESSILHYVVFGGENLDVATRLGAGIEILILSSDIMDDLEDEDNHHALWMKINRSESLNAALSLYTVGLTSIYSLNNNPLIFKYVLKYVNEAMQGQHDDITNKSKTEDESLEVIRLKCGSLIALANVAGVLLATGEYNETVERYSYYKGIIAQISGDYYVLLSGNRSDIEKNKHTLIYLYLKRLFNDASEDLLYLISHKDLYYKSLLDKEKFQEKLIKAGVTQYISVLLEIYKQKCISAIEQLNLDKEKKELIKECLLSYTKGDTRCKT
MGSDKIHHHHHHMKEPLSLSFDEQMALFEERGMQMTSKDVEKLKVIGYYRIKQFAAPLANKKIVNENTVYDYKGIYFSDVLKRYYQDKNLRIHLLHAIEKIEVALKTWVAFILGEQYGAFGYLNFSEWCDKNRYSKFEIEKRQFFFKKDLLRATSRSCTEDIKLKKNKEKDNFPSIWLAVEVLTFGELVRLVEIMSTRNKRKLSKMFRCTDIELLSWLKCINFVRNACAHNANVIDLQLETKPVCRSDWKDYLYNVNKSNNGTPSNKLAIVIFIIKTLVTPINERYGWKNIRRNIARLVDSSDKNAHLLGFSDCASAYKVLEKSNGTTTKASLP
MGSDKIHHHHHHMKFIFDIDGTICFKGNAVTKGIIHALDVCQSKGHEVIFASARPIRDLLPVLPNHMHHYSMIGGNGAFIAKGKDTIEVITFDPGTVSAIHSIIKKHSLSYLIDSHWNYSYTGSENHPIYKNIDPNQLANNVHIDEIKEVVKVVLFPDHVQKEYIMNMLTELPIRIYEHDNEGIVDISPENIDKWVGLQRLGIKEREFVVFGNDSNDLSMFLHAKESICVGSHEVLLGYASTCLKIDEQSIVNKIIELSELYA
MGSDKIHHHHHHMKFTPELESGVLIKRYKRFLADIMLPNGQEITIHCPNTGSMKNCLFPGEKVWFSTSDNPKRKYAHTWELMQTDQQHYIGINTGRANALAEEAINRQVITELLGYEHLKREVKYGSENSRIDILLTSQNRPECYIEVKSCTLLEDQMGYFPDAVTTRGQKHLRELIHMVELGHRAVLLFVVQHSAITSVKPARHIDPHYADLLEQAVANGVEVLAYKTALSPQGSLITSACKVML
MGSDKIHHHHHHMKGFLQTVTGPVAHTDMGLTLPHEHLFNDLSSVVDEPHYAFSQQLVGKKVSADLQWGLKHDPYCCADNMDRKEIDDVIFEINNFMSLGGRTIVDATGSESIGRDASALREVALKTGLNIVASSGPYLEKFESTRIHKPVELLASLIDKELNQGIGETDIRAGMIGEIGVSPAFTQAERNSLRAASLAQCNNPHTAMNIHMPGWLRLGDEVLDIVLEEMNVSPAKVSLAHSDPSGKDVVYQRKMLDRGVWLEFDMIGLDITFPKEGVAPGVQETADAVANLIALGYADQIVLSHDVFLKQMWAKNGGNGWGFVPNVFLAYLAARGVDNDTLRKLCIDNPARLLTA
MGSDKIHHHHHHMKHLSLEALRSFSAVIELGSMTLAGERMGRSQPAISLQLKKLEQQLGVELLTRQGSGFALTADGDVLFDYAQRMLALNDQAWAQFEPQQVSGKVRLGITSEFASSLLPKVLGQFAQVYPQVTLQVTSALSKDLLSGLGQQFDIILALREQTNKSDVLIQREELVWVGLPGLLEQPGWPMVVAPEGCIYRRRAEQSLQRAHQPYRITYTNTDFSGLTAALNSGLGITVLAKSTVPKDIPILESFSDNKPLPNPGSVNVIMRLAGGASSAASQLADYLKARI
MGSDKIHHHHHHMKHSRTAAAKRKTGVFARLADLYTRMEQEYSDKARAAGLTCAGCPDNCCTSYFQHHTHVEWLYLWRGMNRLPEARRAAYLARAKDVVEQSRDLLARGIRPRLMCPVNDDGLCGIYEHRLMICRMHGTRNVLALPDGGLRSFSGCFRFVECTAGQQAEAVPTVDRTPYYRELAALEMEHVGPRLKKLPRVDLTLAEMLFYGPPKL
MGSDKIHHHHHHMKIHPIPPLQCLVFFDAAARHGNFTRAAEELNVTQGAVSKQVVKLESYLGMQLFVRDAKALHLTRAGQTYAGRIHDMLTGCAEATALVMKEPSPHSITIACASGTAGMFLTPIIADFSHEYPNVAIRILVREGVFNLNPAEFDIGVYYIRDVPPPGMSGIRIIEEEVQAYCAPSYLGRRRVSPHELTNVTLLVAEEQQRQWMSWRDWFHLCDSEIAYKPSRTITANSYPVLLQLALRGHGVLLGWNQMITPLVERSDLVLASDASASFGGAYQLVWPDDRRDTAAVTHFREWLLKRVPWKG
MGSDKIHHHHHHMKIKNDLIYDEIHALKADLYQPDNASKGLIIDIHGGGWFRGDKAKDQDLAEALVKDGFSVIVPNYRLTPDAYYPAPLDDMDTLYHWIKTSSKLFDSDRIAVVGSSAGGNMAVEMGIKYGLPIVSLSGILDIDDWLNEHTAVIAQPDHKQDFTNSKSSEINQTGQNDAFYKWFVTNYFNGNSDQYSLATPYKHVNSQPGPMFLANSLNEFVPTSGVLEMAKILTSKNVPYVEWMLPGTQHAKGYLEIVYPTVLNFLNQYI
MGSDKIHHHHHHMKIKVVLSGYGTVGREFIKLLHEKCSYIYETYGIELVVSGVLGRNVAIHNEDGLSIHNLLMYGSSSAAIEKYIEYHPEERATDNISGTVLVESTVTNLKDGNPGKQYIKQAIEKQMDIVAISKGALVTNWREINEAAKIANVRIRYSGATAAALPTLDIGQFSLAGCHVKKIEGILNGTTNYILTKMNEEDITFEEALKEAQRKGIAETNPILDVSGSDSACKLLLLTNSLMGTEHMLTDIYIKGIEHVTKQQIRNAKEQNKFIKLIASAYKDQDGKVTLKVEPYEIDKDHPLANVNGTEKGITFFTDTMGQVTTIGGASNPRGAAAAALKDIINLYRKDLSLSNR
MGSDKIHHHHHHMKILVVGAGAVGGYFGARLAEKGEDVTFLVRERRFEELRAGLQVKSLHGDITCSPRLIRTGEKGTFDVILLSTKAYHLEQVLEDIEPFVATDTYILPLLNGMAHLKQLEQHFGAERVLGGLCFIESTLDGKGHIVQTSPSHHLLFGPLPGTRTDRLEELKQHLTGTAAPINYSDTITRDMWNKYLFITTFSGVTSLFRSAIGPIRSQEEGMMMIRRLATEAKEAMERQGAVFSDGIEQIQQQQIAQMDETMKSSLQRDMEKGNEVESAHLFGTLLSKDEATQVMLPAIYANLKIYRMSRKDV
MGSDKIHHHHHHMKISCKNVGVILPIFNSSHRSFKKTFLQAASGGRIGSSNTGIIEVEALKKIDFTLTEGNRLALIGHNGSGKTTLLRVLAGAYKPTSGKYECIGRVTSLIDPMMGMDGELTGLENIKLRGLFLGLSKNEIKNITEDVIEFSELGDFIKIPVRTYSSGMVLRLGFSISTAINPEILLMDEWMSVGDSDFKRKAEMRLNSFISKAGIMVMATHDDELAKSVCNKFIRLEHGEIVSKGGF
MGSDKIHHHHHHMKISETANKNHEELFPDHKSALKITDPELVEIFDNFAFDEVIQHGDLDTKTRLMVILGALIGSQTLSEYKVMLKGALNVGVTPIEVKEIVYQSVPYVGIAKAYDFINATNEILESRGVKLPLEGQSTTTPENRHEKGLEVQKSIFGEIIDKMYESSPKNQIHIQKYLSANCFGDYYTRTGLDIKTRELLTFCIILALGGCESQLKGHIVGNLNVGNDKKVLLDAVTQTLPYVGYPRTLNAIACLNEIIPE
MGSDKIHHHHHHMKIVHVCETLKGGIESYLAEIIPYQVGLYGAENIHIIVPRDGDEGRSEFHEAVVWEFRRQGRSLSTMLNLCLAILKIVRTQAPDVIHLHSSFAGAIGRVVLMALRKETKVIYCPHGWSYLRQGAEHTNWLWKKIETMLALACNRIVCISEHEYNAALDAGLPKQKLELIVSGISDLVPDAPRNQAVSSEKRAIRLLFVGRLDYQKGVDLLFNALRLAARKDIELTVVGEAVVNSGWWAQVRGSCPENVQIIGWQERDALQIFYDLADALVVPSRWEGFGLVAVEALRAGTPVICNVAGALPDIVEHGISGYHLNFENEEKAVAFFSDLKLENLTLLRRAARERYTSVFKSQAMNEKMLQMYQAVMPHAETVGAAGFME
